{
  "source": "patent US20220372142A1",
  "about": "(IGM BIOSCIENCES, published 2022)",
  "binders": {"B1": {"name": "RTX-IgM V15J (wt) (bispecific antibody)", "VH": "QVQLQQPGAELVKPGASVKMSCKASGYTFTSYNMHWVKQTPGRGLEWIGAIYPGNGDTSYNQKFKGKATLTADKSSSTAYMQLSSLTSEDSAVYYCARSTYYGGDWYFNVWGAGTTVTVSA", "VL": "QIVLSQSPAILSASPGEKVTMTCRASSSVSYIHWFQQKPGSSPKPWIYATSNLASGVPVRFSGSGSGTSYSLTISRVEAEDAATYYCQQWTSNPPTFGGGTKLEIKR", "chain": "not shown"}, "B2": {"name": "RTX-IgM V15J (N93E) (bispecific antibody)", "VH": "B1 VH", "VL": "B1 VL with N93E", "chain": "not shown"}, "B3": {"name": "RTX-IgM V15J (N93D) (bispecific antibody)", "VH": "B1 VH", "VL": "B1 VL with N93D", "chain": "not shown"}, "B4": {"name": "RTX-IgM + J N93A (antibody)", "VH": "B1 VH", "VL": "B1 VL with N93A", "chain": "not shown", "notes": "Pentameric IgM with wild-type J-chain; IgM constant region of the construct not specified"}, "B5": {"name": "RTX-IgM + J N93K (antibody)", "VH": "B1 VH", "VL": "B1 VL with N93K", "chain": "not shown", "notes": "as for B4"}, "B6": {"name": "RTX-IgM + J N93R (antibody)", "VH": "B1 VH", "VL": "B1 VL with N93R", "chain": "not shown", "notes": "as for B4"}},
  "key": {"CD20 [1]": {"molecular_target": "T1, CD20 (UniProt P11836 1-297, limits assumed)", "T1 sequence (looked up)": "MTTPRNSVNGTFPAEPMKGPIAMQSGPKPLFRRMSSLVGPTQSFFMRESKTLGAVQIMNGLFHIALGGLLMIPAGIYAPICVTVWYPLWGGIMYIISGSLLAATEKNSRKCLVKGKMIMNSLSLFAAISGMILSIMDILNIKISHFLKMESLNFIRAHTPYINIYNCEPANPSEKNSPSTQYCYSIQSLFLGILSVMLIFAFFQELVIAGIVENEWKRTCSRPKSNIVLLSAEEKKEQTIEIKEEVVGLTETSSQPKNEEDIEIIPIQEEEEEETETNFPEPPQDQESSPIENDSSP", "assay": "cell-based or functional assay"}, "CD20 [2]": {"molecular_target": "T1, CD20", "assay": "flow cytometry on Ramos cells, anti-human kappa AF647 detection", "procedure": "The cells were split every 2-3 days as necessary to maintain the cell density between 0.2-2.0×10⁶ cells/mL. […] The antibody cell mixtures were incubated for 30 minutes on ice in the dark. […] Fluorescent staining data was acquired on FACSCalibur using standard settings and analyzed with FloJo 10. Mean fluorescent intensity (MFI) values were imported into GraphPad Prism, and EC50 or KD values were calculated from the resulting curve fit."}},
  "note": "Residue numbers refer to the chain shown, from its start. In names and notes the source's numbering stands.",
  "data": [
    {"binder": "B1", "values": [
      {"measurement": "TDCC on CA46 cells with CD8+ T cells, EC50", "setting": "CD20 [1]", "value": 14, "unit": "pM"},
      {"measurement": "TDCC on Ramos cells with CD8+ T cells, % Max.", "setting": "CD20 [1]", "value": 98, "unit": "%"},
      {"measurement": "TDCC on Ramos cells with CD8+ T cells, EC50", "setting": "CD20 [1]", "value": 9, "unit": "pM"},
      {"measurement": "TDCC on normal B cells with CD8+ T cells, EC50", "setting": "CD20 [1]", "value": 9, "unit": "pM"}
    ]},
    {"binder": "B2", "values": [
      {"measurement": "TDCC on Ramos cells with CD8+ T cells, % Max.", "setting": "CD20 [1]", "value": 80, "unit": "%"},
      {"measurement": "TDCC on Ramos cells with CD8+ T cells, EC50", "setting": "CD20 [1]", "value": 107, "unit": "pM"},
      {"measurement": "TDCC on normal B cells with CD8+ T cells, EC50", "setting": "CD20 [1]", "value": 145, "unit": "pM"}
    ]},
    {"binder": "B3", "values": [
      {"measurement": "TDCC on Ramos cells with CD8+ T cells, % Max.", "setting": "CD20 [1]", "value": 60, "unit": "%"},
      {"measurement": "TDCC on Ramos cells with CD8+ T cells, EC50", "setting": "CD20 [1]", "value": 722, "unit": "pM"}
    ]},
    {"binder": "B4", "values": [
      {"measurement": "EC50", "setting": "CD20 [2]", "value": 690, "unit": "pM"}
    ]},
    {"binder": "B5", "values": [
      {"measurement": "EC50", "setting": "CD20 [2]", "value": 880, "unit": "pM"}
    ]},
    {"binder": "B6", "values": [
      {"measurement": "EC50", "setting": "CD20 [2]", "value": 520, "unit": "pM"}
    ]}
  ]
}
